Measured values taken from patent publication WO2005058967A2 (dated 2005).
Positions count from the first letter of the chain named.

B1: humanized 7C10 VL 2 combined with humanized 7C10 VH 2 (antibody, human IgG1, V domains shown)
VH: QVQLQESGPGLVKPSETLSLTCTVSGYSITGGYLWNWIRQPPGKGLEWIGYISYDGTNNYKPSLKDRVTISRDTSKNQFSLKLSSVTAADTAVYYCARYGRVFFDYWGQGTLVTVSS
VL: DIVMTQSPLSLPVTPGEPASISCRSSQSIVHSNGNTYLQWYLQKPGQSPQLLIYKVSNRLYGVPDRFSGSGSGTDFTLKISRVEAEDVGVYYCFQGSHVPWTFGQGTKVEIK
notes: Human IgG1/kappa, cos7 supernatant; also called 7C10 hum 2 heavy chain with humanized 7C10 VL 2
B2: humanized 7C10 VL 2 combined with humanized 7C10 VH 3 (antibody, human IgG1, V domains shown)
VH: B1 VH with T30S, R72V
VL: B1 VL
notes: Human IgG1/kappa, cos7 supernatant; also called 7C10 hum 3 heavy chain with humanized 7C10 VL 2
B3: A2CHM Mab (antibody, V domains shown)
VH: B1 VH with T30S, R72V
VL: B1 VL

Columns and labels:
[1] = molecular target: insulin/IGF-I hybrid receptor isoform A (Hybrid-RsA) (UniProt P08069); assay: displacement of 125I-IGF1 from immunocaptured Hybrid-RsA
[2] = molecular target: T1, extracellular domain of human insulin-like growth factor-1 receptor (hIGF-IR) (human, UniProt P08069 31-935); assay: ELISA on coated soluble IGF-IR, cos7 supernatants
T1 construct: extracellular domain; also called hIGF1-R; Human Insulin-Like Growth Factor I soluble Receptor (R & D Systems #391-GR)

[3] = molecular target: T1, extracellular domain of human …; assay: SPR (BIAcore X), antibody captured by anti-Fc on a CM5 chip, hIGF-IR extracellular domain as analyte at 12.5-200 nM, 25°C

Molecule | binding result [2] | other results
monoclonal antibody 1H7 |  | IC50 [1]: < 50 nM
B1 | binds | 
B2 | binds | 
B3 |  | Kd [3]: 0.86 nM
